In this assay the target is Human Macrophage Galactose Lectin (MGL) isoform 2 extracellular domain (residues Q85-H316) (human). Description: SAXS.

By stoichiometry N is commonly meant a count of units in the complex or per binding partner. In turn, “Human Macrophage Galactose Lectin (MGL) isoform 2 extracellular domain (residues Q85-H316) (domain or fragment)” had a stoichiometry N of 3.
